Reference: patent publication US9580733B2, “Methods of producing 6-carbon chemicals via methyl-ester shielded carbon chain elongation” (INVISTA North America S.á r.l., priority 2012, dated 2017)

What was measured:
Format in all cases: biochemical
[1] = Thioesterase enzyme activity assay, adipyl-CoA to adipate; conditions: 667 μM adipyl-CoA, pH 7.4, 37° C., 20 min, vs empty vector control, FIG. 8
Description: A sequence encoding an N-terminal His-tag was added to the genes from Escherichia coli encoding the thioesterases of SEQ ID NOs: 1 and 2 respectively (see FIG. 7A), such that an N-terminal HIS tagged thioesterase could be produced. Each of the resulting modified genes was cloned into a pET15b expression vector under control of the T7 promoter. Each expression vector was transformed into a BL21[DE3] E. coli host. The resulting recombinant E. coli strains were cultivated at 37° C. in a 500 mL shake flask culture containing 50 mL Luria Broth (LB) media and antibiotic selection pressure, with shaking at 230 rpm. The culture was induced overnight at 17° C. using 0.5 mM IPTG.
The pellet from the induced shake flask culture was harvested via centrifugation. The pellet was resuspended and lysed in Y-per™ solution (ThermoScientific, Rockford, Ill.). The cell debris was separated from the supernatant via centrifugation. […]
The enzyme activity assay was performed in triplicate in a buffer composed of 50 mM phosphate buffer (pH=7.4), 0.1 mM Ellman's reagent, and 667 μM of adipyl-CoA (as substrate). […] The release of Coenzyme A was monitored by absorbance at 412 nm. The absorbance associated with the substrate only control, which contained boiled enzyme, was subtracted from the active enzyme assay absorbance and compared to the empty vector control.

[2] = ω-transaminase activity assay, forward direction, adipate semialdehyde to 6-aminohexanoate; conditions: cell free extract, 10 mM adipate semialdehyde, 10 mM L-alanine, 25° C., 4 h, vs empty vector control, FIG. 16
Description: (§1) A nucleotide sequence encoding a His-tag was added to the genes from Chromobacterium violaceum, Pseudomonas aeruginosa, Pseudomonas syringae, Rhodobacter sphaeroides, and Vibrio fluvialis encoding the ω-transaminases of SEQ ID NOs: 7, 8, 9, 10 and 12, respectively (see FIGS. 7E and 7F) such that N-terminal HIS tagged ω-transaminases could be produced. Each of the resulting modified genes was cloned into a pET21a expression vector under control of the T7 promoter and each expression vector was transformed into a BL21[DE3] E. coli host. The resulting recombinant E. coli strains were cultivated at 37° C. in a 250 mL shake flask culture containing 50 mL LB media and antibiotic selection pressure, with shaking at 230 rpm. Each culture was induced overnight at 16° C. using 1 mM IPTG.
(§2) The pellet from each induced shake flask culture was harvested via centrifugation. Each pellet was resuspended and lysed via sonication. The cell debris was separated from the supernatant via centrifugation and the cell free extract was used immediately in enzyme activity assays.
Enzyme activity in the forward direction (i.e., adipate semialdehyde to 6-aminohexanoate) was confirmed for the transaminases of SEQ ID NO 7, SEQ ID NO 8, SEQ ID NO 9, SEQ ID NO 10 and SEQ ID NO 12. Enzyme activity assays were performed in a buffer composed of a final concentration of 50 mM HEPES buffer (pH=7.5), 10 mM adipate semialdehyde, 10 mM L-alanine and 100 μM pyridoxyl 5′ phosphate. Each enzyme activity assay reaction was initiated by adding a cell free extract of the ω-transaminase gene product or the empty vector control to the assay buffer containing the adipate semialdehyde and incubated at 25° C. for 4 h, with shaking at 250 rpm. The formation of pyruvate was quantified via RP-HPLC.

[3] = ω-transaminase activity assay, reverse direction, 6-aminohexanoate to adipate semialdehyde; conditions: cell free extract, 10 mM 6-aminohexanoate, 10 mM pyruvate, 25° C., 24 h, vs empty vector control, FIG. 15
Description: as §1, §2
Enzyme activity assays in the reverse direction (i.e., 6-aminohexanoate to adipate semialdehyde) were performed in a buffer composed of a final concentration of 50 mM HEPES buffer (pH=7.5), 10 mM 6-aminohexanoate, 10 mM pyruvate and 100 μM pyridoxyl 5′ phosphate. Each enzyme activity assay reaction was initiated by adding cell free extract of the ω-transaminase gene product or the empty vector control to the assay buffer containing the 6-aminohexanoate and incubated at 25° C. for 24 h, with shaking at 250 rpm. The formation of L-alanine from pyruvate was quantified via RP-HPLC.

Molecule | thioesterase activity for converting adipyl-CoA to adipate (release of Coenzyme A, absorbance at 412 nm) [1] | ω-transaminase activity for converting adipate semialdehyde to 6-aminohexanoate (formation of pyruvate, RP-HPLC) [2] | ω-transaminase activity for converting 6-aminohexanoate to adipate semialdehyde (formation of L-alanine from pyruvate, RP-HPLC) [3]
SEQ ID NO 2: Escherichia coli thioesterase encoded by YciA (GenBank Accession No. AAB60068.1), N-terminal His-tagged (protein, listed as Escherichia coli, N-terminal His tag) MSTTHNVPQGDLVLRTLAMPADTNANGDIFGGWLMSQMDIGGAILAKEIAHGRVVTVRVEGMTFLRPVAVGDVVCCYARCVQKGTTSVSINIEVWVKKVASEPIGQRYKATEALFKYVAVDPEGKPRALPVE | accepted adipyl-CoA as substrate |  | 
SEQ ID NO 8: Chromobacterium violaceum ω-transaminase (Genbank Accession No. AAQ59697.1) (protein, listed as Chromobacterium violaceum) MQKQRTTSQWRELDAAHHLHPFTDTASLNQAGARVMTRGEGVYLWDSEGNKIIDGMAGLWCVNVGYGRKDFAEAARRQMEELPFYNTFFKTTHPAVVELSSLLAEVTPAGFDRVFYTNSGSESVDTMIRMVRRYWDVQGKPEKKTLIGRWNGYHGSTIGGASLGGMKYMHEQGDLPIPGMAHIEQPWWYKHGKDMTPDEFGVVAARWLEEKILEIGADKVAAFVGEPIQGAGGVIVPPATYWPEIERICRKYDVLLVADEVICGFGRTGEWFGHQHFGFQPDLFTAAKGLSSGYLPIGAVFVGKRVAEGLIAGGDFNHGFTYSGHPVCAAVAHANVAALRDEGIVQRVKDDIGPYMQKRWRETFSRFEHVDDVRGVGMVQAFTLVKNKAKRELFPDFGEIGTLCRDIFFRNNLIMRACGDHIVSAPPLVMTRAEVDEMLAVAERCLEEFEQTLKARGLA |  | accepted adipate semialdehyde as substrate | 
SEQ ID NO 12: Escherichia coli ω-transaminase, gene product of YgjG (Genbank Accession No. AAA57874.1) (protein, listed as Escherichia coli) MNRLPSSASALACSAHALNLIEKRTLDHEEMKALNREVIEYFKEHVNPGFLEYRKSVTAGGDYGAVEWQAGSLNTLVDTQGQEFIDCLGGFGIFNVGHRNPVVVSAVQNQLAKQPLHSQELLDPLRAMLAKTLAALTPGKLKYSFFCNSGTESVEAALKLAKAYQSPRGKFTFIATSGAFHGKSLGALSATAKSTFRKPFMPLLPGFRHVPFGNIEAMRTALNECKKTGDDVAAVILEPIQGEGGVILPPPGYLTAVRKLCDEFGALMILDEVQTGMGRTGKMFACEHENVQPDILCLAKALGGGVMPIGATIATEEVFSVLFDNPFLHTTTFGGNPLACAAALATINVLLEQNLPAQAEQKGDMLLDGFRQLAREYPDLVQEARGKGMLMAIEFVDNEIGYNFASEMFRQRVLVAGTLNNAKTIRIEPPLTLTIEQCELVIKAARKALAAMRVSVEEA |  | accepted adipate semialdehyde as substrate | accepted 6-aminohexanote as substrate
SEQ ID NO 10: Pseudomonas syringae ω-transaminase (Genbank Accession No. AAY39893.1) (protein, listed as Pseudomonas syringae) MSANNPQTLEWQALSSEHHLAPFSDYKQLKEKGPRIITRAEGVYLWDSEGNKILDGMSGLWCVAIGYGREELADAASKQMRELPYYNLFFQTAHPPVLELAKAISDIAPEGMNHVFFTGSGSEGNDTMLRMVRHYWALKGQPNKKTIISRVNGYHGSTVAGASLGGMTYMHEQGDLPIPGVVHIPQPYWFGEGGDMTPDEFGIWAAEQLEKKILELGVENVGAFIAEPIQGAGGVIVPPDSYWPKIKEILSRYDILFAADEVICGFGRTSEWFGSDFYGLRPDMMTIAKGLTSGYVPMGGLIVRDEIVAVLNEGGDFNHGFTYSGHPVAAAVALENIRILREEKIVERVRSETAPYLQKRLRELSDHPLVGEVRGVGLLGAIELVKDKTTRERYTDKGAGMICRTFCFDNGLIMRAVGDTMIIAPPLVISFAQIDELVEKARTCLDLTLAVLQG |  | accepted adipate semialdehyde as substrate | accepted 6-aminohexanote as substrate
SEQ ID NO 1: Escherichia coli thioesterase encoded by tesB (GenBank Accession No. AAA24665.1), N-terminal His-tagged (protein, listed as Escherichia coli, N-terminal His tag) MSQALKNLLTLLNLEKIEEGLFRGQSEDLGLRQVFGGQVVGQALYAAKETVPEERLVHSFHSYFLRPGDSKKPIIYDVETLRDGNSFSARRVAAIQNGKPIFYMTASFQAPEAGFEHQKTMPSAPAPDGLPSETQIAQSLAHLLPPVLKDKFICDRPLEVRPVEFHNPLKGHVAEPHRQVWIRANGSVPDDLRVHQYLLGYASDLNFLPVALQPHGIGFLEPGIQIATIDHSMWFHRPFNLNEWLLYSVESTSASSARGFVRGEFYTQDGVLVASTVQEGVMRNHN | accepted adipyl-CoA as substrate |  | 
SEQ ID NO 9: Pseudomonas aeruginosa ω-transaminase (Genbank Accession No. AAG08191.1) (protein, listed as Pseudomonas aeruginosa) MNARLHATSPLGDADLVRADQAHYMHGYHVFDDHRVNGSLNIAAGDGAYIYDTAGNRYLDAVGGMWCTNIGLGREEMARTVAEQTRLLAYSNPFCDMANPRAIELCRKLAELAPGDLDHVFLTTGGSTAVDTAIRLMHYYQNCRGKRAKKHVITRINAYHGSTFLGMSLGGKSADRPAEFDFLDERIHHLACPYYYRAPEGLGEAEFLDGLVDEFERKILELGADRVGAFISEPVFGSGGVIVPPAGYHRRMWELCQRYDVLYISDEVVTSFGRLGHFFASQAVFGVQPDIILTAKGLTSGYQPLGACIFSRRIWEVIAEPDKGRCFSHGFTYSGHPVACAAALKNIEIIEREGLLAHADEVGRYFEERLQSLRDLPIVGDVRGMRFMACVEFVADKASKALFPESLNIGEWVHLRAQKRGLLVRPIVHLNVMSPPLILTREQVDTVVRVLRESIEETVEDLVRAGHR |  | accepted adipate semialdehyde as substrate | accepted 6-aminohexanote as substrate
